In the test the target is His-EutM (UniProt P41791). The experiment in a line: pull-down.

Values joined by “and” are separate entries in the source; they are usually repeats but may differ in a detail not shown here. Identical values can stand only once.

Sequence of UniProt P41791 (P41791 whole entry): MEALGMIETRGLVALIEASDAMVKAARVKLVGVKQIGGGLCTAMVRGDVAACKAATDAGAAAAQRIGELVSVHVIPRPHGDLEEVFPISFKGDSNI

Turning to SnoopT-EutM-SpyT, the molar ratio of His-EutM to dual-modified EutM in the purified hybrid scaffold is 3.3 :1 and 7.6 :1. In the case of SpyC-EutM-SnoopC it was 3.9 :1 and 8.8 :1.
